Consider 1 substance from patent US20210355220A1.

Test in all cases: flow cytometry on transfected HEK293 cells, background control
For orientation: Flow cytometry measures light scatter and fluorescence of single cells or particles in a stream.

The target in test [1] is hICOS on HEK293 cells (human) (UniProt Q9Y6W8).
For test [2], the target named is hBTLA on HEK293 cells (human) (UniProt Q7Z6A9).
The target of test [3] is hPDL1 on HEK293 cells (human) (UniProt Q9NZQ7).
Test [4] has as its target human CTLA-4 expressed on cells (human) (UniProt P16410).
Test [5] concerns the target hPD1 on HEK293 cells (human) (UniProt Q15116).
The target in test [6] is hPDL2 on HEK293 cells (human) (UniProt Q9BQ51).
Sequence of hPDL2 on HEK293 cells (human) (Q9BQ51 20-273): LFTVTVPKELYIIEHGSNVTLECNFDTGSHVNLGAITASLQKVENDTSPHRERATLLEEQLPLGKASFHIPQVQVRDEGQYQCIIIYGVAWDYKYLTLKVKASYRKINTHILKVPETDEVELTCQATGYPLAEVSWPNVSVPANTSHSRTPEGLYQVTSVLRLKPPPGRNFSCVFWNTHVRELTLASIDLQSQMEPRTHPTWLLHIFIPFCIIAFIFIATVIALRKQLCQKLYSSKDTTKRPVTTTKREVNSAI
Test [7] has as its target hCD28 on HEK293 cells (human) (UniProt P10747).

Sequence of hICOS on HEK293 cells (human) (Q9Y6W8 21-199): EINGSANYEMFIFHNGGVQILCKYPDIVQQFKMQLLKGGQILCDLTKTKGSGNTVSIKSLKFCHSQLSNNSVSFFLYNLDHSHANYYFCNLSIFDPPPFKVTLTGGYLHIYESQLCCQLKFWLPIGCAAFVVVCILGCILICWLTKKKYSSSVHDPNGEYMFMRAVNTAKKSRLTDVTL
Sequence of human CTLA-4 expressed on cells (human) (P16410 36-223): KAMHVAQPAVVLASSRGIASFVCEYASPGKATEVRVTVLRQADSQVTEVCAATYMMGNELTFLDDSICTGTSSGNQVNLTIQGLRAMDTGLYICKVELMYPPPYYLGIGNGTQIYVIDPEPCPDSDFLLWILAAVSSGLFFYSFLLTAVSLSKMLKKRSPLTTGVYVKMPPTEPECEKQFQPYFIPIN
Sequence of hPDL1 on HEK293 cells (human) (Q9NZQ7 19-290): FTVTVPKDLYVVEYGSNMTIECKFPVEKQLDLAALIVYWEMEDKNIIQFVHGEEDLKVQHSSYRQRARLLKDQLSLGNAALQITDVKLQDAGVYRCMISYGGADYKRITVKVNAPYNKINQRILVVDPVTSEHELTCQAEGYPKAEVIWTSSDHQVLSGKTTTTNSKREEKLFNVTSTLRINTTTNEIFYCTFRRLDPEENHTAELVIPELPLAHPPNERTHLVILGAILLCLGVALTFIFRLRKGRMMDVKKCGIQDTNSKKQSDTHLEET
Sequence of hPD1 on HEK293 cells (human) (Q15116 25-288): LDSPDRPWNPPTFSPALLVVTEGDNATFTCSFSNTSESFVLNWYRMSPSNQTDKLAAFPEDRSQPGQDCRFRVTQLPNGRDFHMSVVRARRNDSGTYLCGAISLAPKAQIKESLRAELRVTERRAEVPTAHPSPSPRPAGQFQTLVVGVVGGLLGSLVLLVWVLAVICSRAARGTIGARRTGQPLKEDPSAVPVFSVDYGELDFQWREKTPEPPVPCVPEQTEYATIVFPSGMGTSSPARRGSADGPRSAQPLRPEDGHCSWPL

Take “Secondary Antibody only (anti-human labeled secondary antibody)”: the MFI in test [1] stood at 67 MFI; in test [2], 82 MFI; in test [3], 68 MFI; in test [4], 78 MFI; in test [5], 74 MFI; in test [6], 71 MFI. The substance also had an MFI in test [7] of 69 MFI.
